Experimental data published in patent publication US20060057144A1 (published 2006).

B1: PsFcγRIIa (recombinant soluble human FcγRIIa protein produced in baculovirus-infected Sf-21 cells) (receptor)
chain: APPKAVLKLEPPWINVLQEDSVTLTCQGARSPESDSIQWFHNGNLIPTHTQPSYRFKANNNDSGEYTCQTGQTSLSDPVHLTVLFEWLVLQTPHLEFQEGETIMLRCHSWKDKPLVKVTFFQNGKSQKFSHLDPTFSIPQANHSHSGDYHCTGNIGYTLFSSKPVTITVQV
notes: Amplified from FcγRIIa LR cDNA; also called PsFc.RIIa; soluble FcγRIIa

Legend:
[1] = molecular target: T1, monomeric human IgG1 (human); experiment: SPR equilibrium, two site fit, immobilised IgG1; remaining 10% of the sites
T1 construct: Immobilised by amine coupling on a CM5 chip
Description: (§1) About 4000 to about 6000 response units (RU) of monomeric human immunoglobulin subclasses IgG1, IgG2, IgG3, and IgE (50 ug/ml of each) were covalently coupled to separate carboxymethylated dextran surface of each CM5 sensor-chips (available from BIAcore, Uppsala, Sweden) using a amine coupling kit (available from BIAcore), according to manufacturer's methods. […] Following administration of the protein, the immunoglobulin surface was regenerated on each chip using a buffer containing 50 mM diethylamine pH 11.5, and 1 M NaCl. […] Data points obtained from the IgE channels were subtracted to correct for refractive index differences.

[2] = molecular target: T2, monomeric human IgG3 (human, UniProt P01860-1 1-377); experiment: SPR equilibrium, two site fit, immobilised IgG3; 50% of the sites
T2 construct: Immobilised by amine coupling on a CM5 chip
T2 sequence (P01860 other isoform, or with tags, fused parts or gaps): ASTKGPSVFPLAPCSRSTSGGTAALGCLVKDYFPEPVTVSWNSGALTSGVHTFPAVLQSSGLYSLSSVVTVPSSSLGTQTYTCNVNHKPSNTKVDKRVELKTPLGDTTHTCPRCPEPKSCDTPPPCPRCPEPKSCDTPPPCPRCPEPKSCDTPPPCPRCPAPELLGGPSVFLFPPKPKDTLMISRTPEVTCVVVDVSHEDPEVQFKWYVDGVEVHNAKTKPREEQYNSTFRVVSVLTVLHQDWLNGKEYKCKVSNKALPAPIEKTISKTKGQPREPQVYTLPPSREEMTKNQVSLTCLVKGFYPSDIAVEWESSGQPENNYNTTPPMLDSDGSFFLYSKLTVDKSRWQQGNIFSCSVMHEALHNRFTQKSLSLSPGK
Description: as §1

[3] = molecular target: T1, monomeric human IgG1; experiment: SPR equilibrium, two site fit, immobilised IgG1; about 90% of the sites
Description: as §1

[4] = molecular target: T2, monomeric human IgG3; experiment: SPR equilibrium, two site fit, immobilised IgG3; remaining 50% of the sites
Description: as §1

[5] = molecular target: B1; experiment: SPR; FcγRIIa (50 µg/mL) premixed with a range of hexapeptide concentrations, passed over immobilised IgG3; against no peptide
Description: (§2) At the conclusion of the concentration dependence measurements all surfaces were regenerated using 50 mM diethylamine (pH 11.5), 1 M NaCl. The total response measured for each concentration of peptide was determined and plotted against the peptide concentration. The non-specific binding responses (IgE channel) were subtracted from binding to IgG1 or IgG3.

[6] = molecular target: B1; experiment: SPR; FcγRIIa (50 µg/mL) premixed with a range of hexapeptide concentrations, passed over immobilised IgG1; against no peptide
Description: as §2

| Binder | Ka [1] [M⁻¹] | Ka [2] [M⁻¹] | Ka [3] [M⁻¹] | Ka [4] [M⁻¹] | fold enhancement of FcγRIIa binding to IgG3 [5] [fold] | fold enhancement of FcγRIIa binding to IgG1 [6] [fold] |
| --- | --- | --- | --- | --- | --- | --- |
| B1 | ~23000 | ~2.7e+06 | ~2.1e+06 | ~12000 |  |  |
| Ac-FQNGKS-NH2 [acetylated hexapeptide of sequence FQNGKS (Ac-Phe-Gln-Asn-Gly-Lys-Ser-NH2)] |  |  |  |  | 1.6 | 4 |
